Assay results from article PMC9512702 (2022).
Where two headings read alike, the source gives them in different places.

What was measured:
[1] = biological target: T1, mammalian expressed RBD (mRBD) of SARS-CoV-2 spike (SARS-CoV-2, UniProt P0DTC2 319-541); assay: SPR
[2] = biological target: T1, mammalian expressed RBD (mRBD) of …; assay: SPR; remark: listed apart in the source

DKEWILQKIYEAMRLLDELADAEASMRVSDAIYEFMKK (designed binder) [SIH-14] showed a koff [1] of 0.00028 s⁻¹.

Binder DKEWILQKIYEEMRLLDELADAEASMRVSDEIYEFMKK (designed binder) [SIH-15] has a koff [2] of 0.00025 s⁻¹.
